Experiments:
GAS cognate DNA = assay: EMSA with P32-labeled cognate DNA; assay type: binding; conditions: data not shown
[1] = system: GAS consensus site DNA (TTCnnnGAA); assay: TIRF-PBM binding of STAT1 proteins to DNA

Row | fold decrease in binding affinity vs P-STAT1 (GAS cognate DNA) [fold] | fold impact on affinity compared to P-STAT1 binding ([1]; optimal GAS site DNA) [fold] | average fold impact on binding compared to P-STAT1 at preferred binding sites ([1]; reduced binding) [fold] | Molecule
1 | > 200 | > 100 |  | U-STAT1: unphosphorylated STAT1 (protein, UniProt P42224 2-750, looked up, unphosphorylated) Signal transducer and …: SQWYELQQLDSKFLEQVHQLYDDSFPMEIRQYLAQWLEKQDWEHAANDVSFATIRFHDLLSQLDDQYSRFSLENNFLLQHNIRKSKRNLQDNFQEDPIQMSMIIYSCLKEERKILENAQRFNQAQSGNIQSTVMLDKQKELDSKVRNVKDKVMCIEHEIKSLEDLQDEYDFKCKTLQNREHETNGVAKSDQKQEQLLLKKMYLMLDNKRKEVVHKIIELLNVTELTQNALINDELVEWKRRQQSACIGGPPNACLDQLQNWFTIVAESLQQVRQQLKKLEELEQKYTYEHDPITKNKQVLWDRTFSLFQQLIQSSFVVERQPCMPTHPQRPLVLKTGVQFTVKLRLLVKLQELNYNLKVKVLFDKDVNERNTVKGFRKFNILGTHTKVMNMEESTNGSLAAEFRHLQLKEQKNAGTRTNEGPLIVTEELHSLSFETQLCQPGLVIDLETTSLPVVVISNVSQLPSGWASILWYNMLVAEPRNLSFFLTPPCARWAQLSEVLSWQFSSVTKRGLNVDQLNMLGEKLLGPNASPDGLIPWTRFCKENINDKNFPFWLWIESILELIKKHLLPLWNDGCIMGFISKERERALLKDQQPGTFLLRFSESSREGAITFTWVERSQNGGEPDFHAVEPYTKKELSAVTFPDIIRNYKVMAAENIPENPLKYLYPNIDKDHAFGKYYSRPKEAPEPMELDGPKGTGYIKTELISVSEVHPSRLQTTDNLLPMSPEEFDEVSRIVGSVEFDSMMNTV
2 |  |  | 2.6 | P-STAT1tc: Phosphorylated truncated STAT1 lacking N-terminal domain and short C-terminal activation domain (amino acids 132-712) (protein, UniProt P42224 132-712, looked up, fragment, phosphorylated) STVMLDKQKELDSKVRNVKDKVMCIEHEIKSLEDLQDEYDFKCKTLQNREHETNGVAKSDQKQEQLLLKKMYLMLDNKRKEVVHKIIELLNVTELTQNALINDELVEWKRRQQSACIGGPPNACLDQLQNWFTIVAESLQQVRQQLKKLEELEQKYTYEHDPITKNKQVLWDRTFSLFQQLIQSSFVVERQPCMPTHPQRPLVLKTGVQFTVKLRLLVKLQELNYNLKVKVLFDKDVNERNTVKGFRKFNILGTHTKVMNMEESTNGSLAAEFRHLQLKEQKNAGTRTNEGPLIVTEELHSLSFETQLCQPGLVIDLETTSLPVVVISNVSQLPSGWASILWYNMLVAEPRNLSFFLTPPCARWAQLSEVLSWQFSSVTKRGLNVDQLNMLGEKLLGPNASPDGLIPWTRFCKENINDKNFPFWLWIESILELIKKHLLPLWNDGCIMGFISKERERALLKDQQPGTFLLRFSESSREGAITFTWVERSQNGGEPDFHAVEPYTKKELSAVTFPDIIRNYKVMAAENIPENPLKYLYPNIDKDHAFGKYYSRPKEAPEPMELDGPKGTGYIKTELISVSEV
